Reference: patent publication US20100004432, “APTAMER AGAINST MIDKINE AND USE THEREOF” (RIBOMIC INC., published 2010)
Where a chain is given by its changes, count along the chain named.

B1: SEQ ID NO:20-3 (ssRNA)
RNA: GGGAGAGGAACGACGAGGAGUAGCCGGAAAGAAGGCGGCGUC
modifications: 2'-F pyrimidines; 2'-OMe purines of second stem: gggagaggaac(F)gac(F)gaggagu(F)ag(M)c(F)c(F)ggaaagaag(M)g(M)c(F)ggc(F)gu(F)c(F)
B2: SEQ ID NO:20-5 (ssRNA)
RNA: B1 RNA
modifications: 2'-F pyrimidines; 20-1 pattern (2'-OMe 5' single strand) plus 2'-OMe A in bulge: ga(M)gga(M)gu(F)a(M)g
B3: SEQ ID NO:20-12 (ssRNA)
RNA: B1 RNA
modifications: 2'-F pyrimidines; 20-5 pattern plus 2'-OMe: c(F)g(M)a(M)c(F), gga(M)aa(M)g(M)aagg, 3' g(M)u(F)c(F)
B4: SEQ ID NO:20-10 (ssRNA)
RNA: B1 RNA
modifications: 2'-F pyrimidines; 20-5 pattern plus 2'-OMe near 3' end: ggc(F)g(M)g(M)c(F)gu(F)c(F)
B5: SEQ ID NO:20-13 (ssRNA)
RNA: B1 RNA
modifications: 2'-F pyrimidines; 20-5 pattern plus 2'-OMe: c(F)g(M)a(M)c(F), gga(M)aa(M)gaag(M)g, 3' g(M)u(F)c(F)
B6: SEQ ID NO:20-9 (ssRNA)
RNA: B1 RNA
modifications: 2'-F pyrimidines; 20-5 pattern plus 2'-OMe first stem: c(F)g(M)a(M)c(F)g and 3' g(M)u(F)c(F)
B7: SEQ ID NO:45-1 (ssRNA)
RNA: GGGAGAGGAGAAGAGGAAGUGCACAGGGGUUGGUGUCGGGUGCAC
modifications: 5' PEG2000-C12; 3' idT; 2'-F pyrimidines; 2'-OMe all A in 5' single-stranded part
B8: SEQ ID NO:45-3 (ssRNA)
RNA: B7 RNA
modifications: 2'-F pyrimidines; 2'-OMe all A in 5' single-stranded part and A, G in internal loop: a(M)g(M)ggg and c(F)g(M)g(M)g
B9: SEQ ID NO:45-2 (ssRNA)
RNA: B7 RNA
modifications: 2'-F pyrimidines; 2'-OMe all A in 5' single-stranded part and G in loop: agggg(M)u(F)u(F)g(M)g(M)u(F)g(M)u(F)c(F)
B10: SEQ ID NO:41 (ssRNA)
RNA: GGGAAGGAGAAGAGGAAGUGCACAGGGGUUGGUGUCGGGUGCACAGUAUAAG
modifications: 2'-F pyrimidines
B11: SEQ ID NO:42 (ssRNA)
RNA: B10 RNA with A5G, G6A, A8G, G9A, A10G
modifications: 2'-F pyrimidines
B12: SEQ ID NO:30 (ssRNA)
RNA: GGAGAAGAGGAAGUGUGCACAGGGGUUGGUGUCGGGUGCAUACAGUAUAAGAUAGAGGACAGGAAUGAGGA
modifications: 2'-F pyrimidines
B13: SEQ ID NO:32 (ssRNA)
RNA: GGGAGAGGAGAAGAGGAAGUGUGCACAGGGGUUGGUGUCGGGUGCAUACAGUAUAAG
modifications: 2'-F pyrimidines
B14: SEQ ID NO:43 (ssRNA)
RNA: GGGAGAGGAGAAGAGGAGUGCACAGGGGUUGGUGUCGGGUGCACAGUAUAAG
modifications: 2'-F pyrimidines
B15: SEQ ID NO:36 (ssRNA)
RNA: GGGAGAGGAGAAGAGGAAGUGCACAGGGGUUGGUGUCGGGUGCACAGUAUAAG
modifications: 2'-F pyrimidines
B16: SEQ ID NO:36-1 (ssRNA)
RNA: B15 RNA
modifications: 2'-F pyrimidines; 2'-OMe on all of 5' single strand (nt 1-18)
B17: SEQ ID NO:31 (ssRNA)
RNA: GGGAGAGGAGAAGAGGAAGUGUGCACAGGGGUUGGUGUCGGGUGCAUACAGUAUAAGAUAGAGGACA
modifications: 2'-F pyrimidines
B18: SEQ ID NO:35 (ssRNA)
RNA: GGGAGAGGAGAAGAGGAAGUGUGCACAGGGGUUGGUGUCGGGUGCAUACAG
modifications: 2'-F pyrimidines
B19: SEQ ID NO:33 (ssRNA)
RNA: GGAGAAGAGGAAGUGUGCACAGGGGUUGGUGUCGGGUGCAUACAGUAUAAGAUAGAGGACA
modifications: 2'-F pyrimidines

What follows are binders tested against T1, midkine (full-length) (Homo sapiens, UniProt P21741 P21741:23-143) (assay: cell_activity; UMR106 migration inhibition, 500 nM RNA). Conditions: tags: expressed in yeast.
T1 sequence: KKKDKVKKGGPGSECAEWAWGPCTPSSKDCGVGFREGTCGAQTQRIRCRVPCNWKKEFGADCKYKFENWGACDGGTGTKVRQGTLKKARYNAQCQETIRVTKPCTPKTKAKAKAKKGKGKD
Protocol: Chem. 276 (19), 15868-15875, 2001). […] 30 μL of 1.5 μM midkine was applied to the outer surface of the membrane of Chemotaxicell (membrane pore diameter 8 μm, manufactured by Kurabo) to immobilize the midkine to the outer surface of the membrane. The midkine-immobilized Chemotaxicell was placed on a 24-well culture plate containing 500 μL of a medium (supplemented with 0.3% bovine serum albumin, Dulbecco's Modified Eagle's medium) supplemented with each RNA aptamer added thereto at 100 nM. 200 μL of UMR106 cells were placed in the inner layer of the Chemotaxicell chamber at a density of 1×10⁶ cells/mL, and cultured at 37° C. for 4 hours. The cells remaining in the inner layer of the Chemotaxicell chamber were removed, and the cells that had infiltrated and adhered to the midkine-applied surface were fixed with methanol. The Chemotaxicell chamber was immersed in a 1% aqueous solution of Crystal Violet for 30 minutes to stain the cells. After the Chemotaxicell chamber was washed with distilled water and dried, the pigment was extracted with a mixed solution of 200 μL of 1% SDS and 1% triton X100. 150 μL of the extract was transferred to a 96-well microplate, and its absorbance at 590 nm was determined.
(§1) The aptamer shown by SEQ ID NO:4 is 77 nucleotides long, having the 2′ position of the ribose of the pyrimidine nucleotide thereof fluoro-substituted. To enable the chemical synthesis, to reduce the toxicity, and to improve the stability in the blood, miniaturization and stabilization of this aptamer were performed. The operations of miniaturization and stabilization were performed on the basis of the secondary structure estimated by the MFOLD program, and the activity was evaluated by a cell migration inhibition experiment. In the cell migration inhibition experiment, the RNA concentration was 100 nM or 500 nM. Since some errors occur in experimental results depending on cell condition, a previously assayed sample was included as a positive control in each measurement.

| Binder | activity |
| --- | --- |
| B1 | 60 % of SEQ ID NO:4 |
| B2 | 88 % of SEQ ID NO:4 |
| B3 | 53 % of SEQ ID NO:4 |
| B4 | 86 % of SEQ ID NO:4 |
| GGGAGAGGAACGACGAGGAGUAGCCGGAAAGAAGGCGGCGUC (ssRNA, 2'-F pyrimidines; 20-5 pattern plus 2'-OMe A in loop: gga(M)aa(M)gaagg) [SEQ ID NO:20-8] | 99 % of SEQ ID NO:4 |
| B5 | 89 % of SEQ ID NO:4 |
| B6 | 130 % of SEQ ID NO:4 |

Molecular target: T1, midkine (full-length)
Test: as above
Conditions: tags: expressed in yeast
Remark: another data set of the same source

| Binder | activity |
| --- | --- |
| B7 | 100 % of SEQ ID NO:40 |
| B8 | 56 % of SEQ ID NO:40 |
| B9 | 100 % of SEQ ID NO:40 |

The binders below were run against T1, midkine (full-length) (assay: cell_activity; 100 nM RNA). Conditions: tags: expressed in yeast.
Protocol: 30 μL of 1.5 μM midkine was applied to the outer surface of the membrane of Chemotaxicell (membrane pore diameter 8 μm, manufactured by Kurabo) to immobilize the midkine to the outer surface of the membrane. The midkine-immobilized Chemotaxicell was placed on a 24-well culture plate containing 500 μL of a medium (supplemented with 0.3% bovine serum albumin, Dulbecco's Modified Eagle's medium) supplemented with each RNA aptamer added thereto at 100 nM. 200 μL of UMR106 cells were placed in the inner layer of the Chemotaxicell chamber at a density of 1×10⁶ cells/mL, and cultured at 37° C. for 4 hours. The cells remaining in the inner layer of the Chemotaxicell chamber were removed, and the cells that had infiltrated and adhered to the midkine-applied surface were fixed with methanol. The Chemotaxicell chamber was immersed in a 1% aqueous solution of Crystal Violet for 30 minutes to stain the cells. After the Chemotaxicell chamber was washed with distilled water and dried, the pigment was extracted with a mixed solution of 200 μL of 1% SDS and 1% triton X100. 150 μL of the extract was transferred to a 96-well microplate, and its absorbance at 590 nm was determined.
as §1, with “NO:5” for “NO:4”, “2′-position” for “2′ position”, “nucleotide” for “nucleotide thereof”, “The RNA concentration in” for “In”, “experiment” for “experiment, the RNA concentration”

| Binder | activity |
| --- | --- |
| B10 | 97 % of SEQ 5 inhibition |
| B11 | 110 % of SEQ 5 inhibition |
| B12 | 44 % of SEQ 5 inhibition |
| B13 | 100 % of SEQ 5 inhibition |
| B14 | 42 % of SEQ 5 inhibition |
| B15 | 91 % of SEQ 5 inhibition |
| B16 | 60 % of SEQ 5 inhibition |
| B17 | 94 % of SEQ 5 inhibition |
| B18 | 90 % of SEQ 5 inhibition |
| GGGAGAGGAGAAGAGGAAGGCACAGGGGUUGGUGUCGGGUGCCAG (ssRNA, 2'-F pyrimidines) [SEQ ID NO:39] | 52 % of SEQ 5 inhibition |
| B19 | 40 % of SEQ 5 inhibition |
